Results taken from US20080317723A1, “LYMPHATIC ENDOTHELIAL CELLS MATERIALS AND METHODS” (VEGENICS LIMITED, priority 2001, published 2008).

What was measured:
Type in all cases: cell-based, human
p42/p44 MAPK = p42/p44 MAPK Thr202/Tyr204 phosphorylation in HMVE cells, Western blot
Method: (§1) Western blot analysis. Endothelial cells were cultured on 35 mm dishes to near confluence, starved for 24 h in serum free medium and stimulated as indicated. Wortmannin ([…]), LY294002 ([…]), PD98059 (10-25 μM) or GF109203X (2.5-5 μM) were added 1-3 h before stimulation, where indicated. DMSO, into which the inhibitors were dissolved, was used as a control. After the stimulation, the cells were lysed in lysis buffer (50 mM HEPES, pH 7.5, 150 mM NaCl, 10 mM EDTA, 100 mM NaF, 1% TritonX-100 supplemented with 2 mM Na3VO4, 0.5 mM PMSF, 100 U/ml approtinin and 10 μg/ml leupeptin). Clarified lysates were separated by SDS-PAGE, transferred to nitrocellulose and immunoblotted using the phosphospecific antibodies for Akt-Ser473, Akt-Thr308, p42/44 MAPK-Thr202/Tyr204 or CREB-Ser133. The bound antibodies were detected using horseradish peroxidase conjugated secondary antibodies and enhanced chemiluminescence detection system. The blots were stripped and reprobed with antibodies against Akt, MAPK or CREB for quantification by reading the optical densities of the signals with Multi-Analyst 2.0.1 program (Bio-Rad).
The p42/p44 MAPK activation was detected by Western blotting using phospho-Thr202/Tyr204-MAPK specific antibodies and CREB phosphorylation using phospho-Ser133 specific antibodies. The growth factor concentrations used were: VEGF 10 ng/ml, VEGF-C 100 ng/ml and VEGF-C156S 500 ng/ml. […] Effects of inhibition of protein kinase C by GF109203X, MEK1 by PD98059 and PI-3 kinase by LY294002 on p42/p44 MAPK Thr202/Tyr204 phosphorylation, CREB Ser133 phosphorylation and Akt Ser473 phosphorylation in HMVE cells. The growth factor concentrations used were: VEGF 1 ng/ml, VEGF-C 10 ng/ml and VEGF-C156S 500 ng/ml

Akt = Akt phosphorylation in HMVE cells, Western blot; details: for Akt phosphorylation at Ser473 on growth factor stimulation: HMVE cells; for time of maximal (peak) Akt phosphorylation after exposure: HMVEC, FIG. 4
Method: as §1
As discussed in the background, a major signal transduction pathway by which growth factor receptors can promote cell survival employs the PI-3-kinase and its downstream target, the serine-threonine kinase Akt. The effect of the different VEGFs on Akt was analyzed by assessing Akt phosphorylation in serine 473 and threonine 308 using phosphospecific antibodies.

HMVE cells = test: Annexin-V staining of serum-starved HMVE cells with podoplanin co-staining; details: 72 hours serum-free medium; podoplanin positive vs negative cells, FIG. 3
Method: FIG. 3. Quantitation of the Annexin-V positive cells (% of adherent cells) in the podoplanin positive and negative cell populations after 72 hours of serum starvation. Data represent mean values from five counted areas (×400) (mean±s.d.).
Analysis of endothelial cell apoptosis. For the apoptosis assay, 70,000 cells per well were seeded into 24-well plates. Treatments were done in duplicates and apoptosis was detected by measuring cytoplasmic histone-associated DNA fragments using the death detection ELISA PLUS kit (Roche, Indianapolis, Ind.). The following ranges of growth factor concentrations were tested: bFGF 10-20 ng/ml, PlGF-1 50-1000 ng/ml, VEGF 10-50 ng/ml, VEGF-C 50-1000 ng/ml, VEGF-D 50-1000 ng/ml, VEGF-C156S 50-1000 ng/ml and VEGF-E 50-1000 ng/ml. Annexin-V-FLUOS (Roche, Indianapolis, Ind.) was used to detect phosphatidylserine on the apoptotic cells by fluorescence microscopy according to the instructions of the manufacturer. The simultaneous staining with propidium iodide (1 μg/ml) was used for discriminating possible necrotic cells.
Annexin-V staining of the HMVE cells was performed after 72 hours of culture in serum-free medium alone (BSA) or with stimulation of VEGF or VEGF-C. Simultaneous staining using antibodies against podoplanin was used to distinguish lymphatic and blood vascular endothelial cells. […]

[1] = test system: VEGFR-3 expressing lymphatic endothelial cells; test: Serum starvation-induced apoptosis, cytoplasmic mono- and oligonucleosomes, isolated VEGFR-3 positive cells; details: for cell survival during serum starvation: VEGFR-3 expressing cells, FIG. 2B
Source text: FIG. 2A-FIG. 2B. VEGFR-2 and VEGFR-3, but not VEGFR-1 activating ligands inhibit apoptosis of serum-deprived HMVE cells. Measurement of the cytoplasmic histone-associated DNA fragments (mono- and oligonucleosomes) in serum-starved HMVE cells consisting of two cell populations of blood vascular and lymphatic endothelial cells (FIG. 2A) or in the isolated cell populations after magnetic cell sorting using VEGFR-3 antibodies (FIG. 2B). The enrichment factor of cytoplasmic oligonucleosomes in the apoptotic cells grown for 24 h in serum-free medium (BSA) was chosen as 100 (%). Data represent mean values from three independent experiments (mean±s.d.). […] Isolation of lymphatic and blood vascular endothelial cells. […] Analysis of endothelial cell apoptosis. For the apoptosis assay, 70,000 cells per well were seeded into 24-well plates. Treatments were done in duplicates and apoptosis was detected by measuring cytoplasmic histone-associated DNA fragments using the death detection ELISA PLUS kit (Roche, Indianapolis, Ind.). […] Annexin-V-FLUOS (Roche, Indianapolis, Ind.) was used to detect phosphatidylserine on the apoptotic cells by fluorescence microscopy according to the instructions of the manufacturer. The simultaneous staining with propidium iodide (1 μg/ml) was used for discriminating possible necrotic cells.

[2] = serum-deprived lymphatic endothelial cells

Molecule | duration of MAPK activation, in words (p42/p44 MAPK) | p42/p44 MAPK activation (phosphorylation) (p42/p44 MAPK) | Akt phosphorylation at Ser473 on growth factor stimulation (Akt) | time of maximal (peak) Akt phosphorylation after exposure (Akt) [min] | Annexin-V positive cells / survival (HMVE cells) | cell survival during serum starvation [1] | accumulation of oligo- and mononucleosomes [1, 2] | concentration at which the maximum effect was achieved (inhibition of oligo- and mononucleosome accumulation) [1, 2] [ng/mL]
VEGF | more transient than that induced by VEGF-C | significantly stronger | phosphorylated at Ser473 | 20 to 30 | strongly decreased the number of cells displaying Annexin-V positivity | promoted cell survival |  | 
VEGF-C156S: VEGFR-3 specific mutant form of VEGF-C, cysteine 156 changed into serine; recombinant human (Thr103 to Ile225) (protein, UniProt P49767 103-225, looked up, variant C156S) TEETIKFAAAHYNTEILKSIDNEWRKTQCMPREVCIDVGKEFGVATNTFFKPPSVSVYRCGGCCNSEGLQCMNTSTSYLSKTLFEITVPLSQGPKPVTISFANHTSCRCMSKLDVYRQVHSII |  | MAPK activation in HMVE cells was detected | phosphorylated at Ser473 | 30 to 40 | increased the survival of mainly the lymphatic endothelial cells | induced the survival of only the VEGFR-3 positive cells | inhibited dose-dependently | 500
